Test results reported in patent publication US20060134801A1, “Methods and compositions involving MDA-7” (Board of Regents, The University of Texas System, priority 2003, published 2006).

Experiments:
Format in all cases: cell-based, human
[1] = test system: MiaPaCa2 pancreatic cancer cells; experiment: MDA-7 protein on pancreatic cancer cells: STAT3 activation, killing
Experimental: MiaPaCa2 pancreatic cancer cells were treated with purified recombinant human MDA-7 protein, as described in Example 11. By immunofluorescence, substantial activation (phosphorylation) of STAT3 and concomitant movement of p-STAT3 to the nucleus were observed. The STAT3 activation was blocked in the presence of anti-MDA-7 antibodies.

iNOS = iNOS expression in melanoma cell lines (immunostaining of cytospins); design: dose or concentration left out as unconfirmed; settings: A375; 48 h
Experimental: Replication-deficient human type 5 adenovirus (Ad5) carrying the mda-7 gene was obtained from Introgen Therapeutics (Houston, Tex.). The mda-7 gene was linked to an internal CMV-EE promoter and followed by SV40 polyadenylation. Ad-Luc and Ad-CMV polyadenylation (luciferase and empty vector, respectively), were used as control viruses. Cells were plated 1 day before infection. […] Experimental conditions were optimized to achieve MDA-7 protein expression by >70% of cells, based on results of immunohistochemical staining.
[…] At baseline, these melanoma cell lines express high levels of iNOS and are negative for MDA-7. Forty-eight h after vector treatment, the cells were collected, and cytospins were prepared to analyze iNOS expression. […] It has been shown previously that MDA-7 is secreted by Ad-mda7-infected melanoma cells (Lebedova et al., 2002; Mhashilkar et al., 2001).

HUVEC and HMVEC = experiment: Endothelial cell proliferation assay (trypan blue); settings: 1, 5, 10, 50 ng/ml; 1 ng/ml bFGF; vs PBS
Experimental: To test the effect of sMDA-7 protein on cell proliferation, endothelial cells (HUVEC, HMVEC) were serum-starved overnight. The next day, cells were seeded in 2-well chamber slides (1−10^4/well). The cells were allowed to adhere and spread for 4-6 h, and fresh medium containing 1 ng/ml of bFGF as a proangiogenic stimulator, and various concentrations of sMDA-7/IL-24 (1, 5, 10, and 50 ng/ml) was added. Cells treated with PBS served as controls. Cells were then harvested 3 days after treatment and cell proliferation determined by trypan blue exclusion assay method as previously described (Saeki et aL, 2000). The effect of sMDA-7 on lung tumor cell (H1299, and A549) proliferation was also evaluated. The experimental conditions were the same as described above for endothelial cells except that tumor cells were not stimulated with bFGF.

HUVEC [2] = experiment: Endothelial cell differentiation (tube formation) assay on Matrigel
Experimental: Endothelial cell differentiation (tube formation) assays were done using the in vitro angiogenesis assay kit (Chemicon, Temecula, Calif.). Briefly, HUVEC and HMVEC were grown to 80% confluency, collected, resuspended in growth medium, and plated at a concentration of 2−10^4 cells/well in a 96-well plate coated with Matrigel (Chemicon, Temecula, Calif.). Cells were treated with sMDA-7 protein (1, 5, 10, and 50 ng/ml), or a preparation immunodepleted of sMDA protein for 24 h at 37° C. Cells treated with PBS served as negative controls in these experiments. The ability of sMDA-7 to inhibit tube formation was determined and quantitated by counting the number of tubes under bright-field microscopy.
For experiments involving comparative studies, cells were treated with equimolar concentrations of sMDA-7 (5, 10, and 300 ng/ml), recombinant human endostatin (5.2, 10.4, and 315 ng/ml; Calbiochem, La Jolla, Calif.), recombinant IFN-γ (4.5, 9, and 268 ng/ml; R&D systems, Minneapolis, Minn.) or recombinant IP-10 (2.4, 4.5, and 134 ng/ml; R&D systems, Minneapolis, Minn.) and analyzed for tube formation assay as described above. All samples were tested in duplicate. Experiments were repeated at least 5-6 times.
For receptor blocking studies, HUVEC grown in six-well plates were pretreated with IL-22R1 blocking antibody (1 ng/ml and 5 ng/ml). Following overnight incubation, cells were harvested, washed, and plated in Matrigel coated 96-well plates. Fresh IL-22R1 blocking antibody and sMDA-7 was added to the wells in a 1:1 ratio (1 ng/ml of IL-22R1 antibody:1 ng/ml of sMDA-7) or 1:5 ratio (1 ng/ml of IL-22R1 antibody:5 ng/ml of sMDA-7) and incubated at 37° C. After overnight incubation, the plates were examined for tube formation. All other experimental procedures were the same as described above. […] The relative amount of IL-22R1 used for experiments involving endostatin was 315 ng/ml (1:1 ratio) and 134 ng/ml for experiments involving IP-10 (1:1 ratio). All other experimental procedures were the same as described previously. For blocking studies using anti-IP-10 or anti-IFN-γ neutralizing antibodies (R & D Systems), experiments were conducted as described above for receptor studies except that HUVEC were treated with the appropriate neutralizing antibody (1 μg and 5 μg/ml) prior to treatment with sMDA-7 (300 ng/ml).

HUVEC [3] = experiment: IP-10 and IFN-γ production by ELISA; settings: 10 ng/ml; 48 h period
Experimental: Furthermore, IFN-γ is a potent inducer of IP-10 (Majumder et al., 1998). […] Studies were conducted to determine whether the antiangiogenic activity of sMDA-7 was mediated by IFN-γ or IP-10. HUVEC were seeded in 6-well plates (1×10^5/well) and treated with sMDA-7 (10 ng/ml). Cell culture supernatant was collected at 6 h, 24 h, and 48 h after treatment, centrifuged at 1200 rpm, and analyzed for IP-10 and IFN-γ protein production using commercially available ELISA kits. Assays were performed as recommended by the manufacturer (R&D systems, Minneapolis, Minn.). […] Cells treated with PBS served as negative controls in these experiments. Samples were analyzed in quadruplicate, and data represented as the average value for each concentration of sMDA-7 tested.

B1: sMDA-7: soluble secreted human MDA-7 (IL-24) protein purified from stably transfected 293-mda-7 cells (protein)
chain: AQGQEFHFGPCQVKGVVPQKLWEAFWAVKDTMQAQDNITSARLLQQEVLQNVSDAESCYLVHTLLEFYLKTVFKNYHNRTVEVRTLKSFSTLANNFVLIVSQLQPSQENEMFSIRDSAHRRFLLFRRAFKQLDVEAALTKALGEVDILLTWMQKFYKL
Question: How did the “killing of MiaPaCa2 cells” value [1] turn out when B1 was run?
Answer: dose-dependent killing

Question: And the “time to evident STAT3 activation” value [1]?
Answer: ≤ 30 min

Question: And the iNOS expression (iNOS)?
Answer: clear down-regulation

Question: And the antiproliferative activity (HUVEC and HMVEC)?
Answer: no significant antiproliferative activity

Question: What about the “inhibitory activity on tube formation in presence of anti-IP-10 or anti-IFN-γ neutralizing antibodies” value (HUVEC [2]) of the same molecule?
Answer: not lost

Question: What about the tube formation (HUVEC [2]; 5 ng/ml alone) of the same molecule?
Answer: completely inhibited

Question: What about the “formation of capillary tube-like structures” value (HUVEC [2]; HUVEC and HMVEC, 1, 5, 10, 50 ng/ml) of the same molecule?
Answer: significantly inhibited

Question: And the “concentration required to significantly inhibit HUVEC tube formation” value (HUVEC [2]; equimolar comparison)?
Answer: 10 ng/mL

Question: And the “induced secretion of IFN-γ” value (HUVEC [3])?
Answer: < 30 pg/mL

Question: And the “induced secretion of IP-10” value (HUVEC [3])?
Answer: < 32 pg/mL
